Targets include Gly189Ala NFU1 (human) (UniProt Q9UMS0); Gly189Arg NFU1 (human) (UniProt Q9UMS0); Gly189Lys NFU1 (human) (UniProt Q9UMS0).
Holding throughout (experiment): AUC
Assay [1] deals with native human NFU1 (human) (UniProt Q9UMS0).

“Gly189Ala NFU1 (from UniProt Q9UMS0 10-254) (natural protein)”: in the assay with Gly189Ala NFU1 (human), the percent dimer is 3%, the percent dimer with 1 mM TCEP was 3%, the percent monomer amounted to 95% and the percent monomer with 1 mM TCEP amounted to 95%. The stoichiometry N with Gly189Ala NFU1 (human) was 2.

In the assay with Gly189Arg NFU1 (human), “Gly189Arg NFU1 (from UniProt Q9UMS0 10-254) (natural protein)” yielded a percent dimer of 4%, a percent dimer with 1 mM TCEP of 4%, a percent monomer of 95% and a percent monomer with 1 mM TCEP of 94%. The stoichiometry N in the assay with Gly189Arg NFU1 (human) stood at 2.

On to “Gly189Lys NFU1 (from UniProt Q9UMS0 10-254) (natural protein)”, for which, in the assay with Gly189Lys NFU1 (human), the percent dimer was determined as 5%, the percent dimer with 1 mM TCEP was found to be 6%, the percent monomer with 1 mM TCEP is 89% and the stoichiometry N came to 2.

Regarding “native human NFU1 (from UniProt Q9UMS0 10-254) (natural protein)”, in assay [1], the percent dimer stood at 52%, the percent dimer with 1 mM TCEP came out at 44%, the percent monomer turned out to be 45% and the percent monomer with 1 mM TCEP is 44%.

Values taken from PMC5696030.
